This is an account of results in paper PMC8376421.

This assay addresses recombinant hACE2-AviTag protein (human) (UniProt Q9BYF1). Kind of assay: SPR. (In general: In SPR one partner is held on a chip, and binding of the other changes the refractive index at the surface.)

pKd: −log10 of the molar value.

Chain of UniProt Q9BYF1 (Q9BYF1 18-740): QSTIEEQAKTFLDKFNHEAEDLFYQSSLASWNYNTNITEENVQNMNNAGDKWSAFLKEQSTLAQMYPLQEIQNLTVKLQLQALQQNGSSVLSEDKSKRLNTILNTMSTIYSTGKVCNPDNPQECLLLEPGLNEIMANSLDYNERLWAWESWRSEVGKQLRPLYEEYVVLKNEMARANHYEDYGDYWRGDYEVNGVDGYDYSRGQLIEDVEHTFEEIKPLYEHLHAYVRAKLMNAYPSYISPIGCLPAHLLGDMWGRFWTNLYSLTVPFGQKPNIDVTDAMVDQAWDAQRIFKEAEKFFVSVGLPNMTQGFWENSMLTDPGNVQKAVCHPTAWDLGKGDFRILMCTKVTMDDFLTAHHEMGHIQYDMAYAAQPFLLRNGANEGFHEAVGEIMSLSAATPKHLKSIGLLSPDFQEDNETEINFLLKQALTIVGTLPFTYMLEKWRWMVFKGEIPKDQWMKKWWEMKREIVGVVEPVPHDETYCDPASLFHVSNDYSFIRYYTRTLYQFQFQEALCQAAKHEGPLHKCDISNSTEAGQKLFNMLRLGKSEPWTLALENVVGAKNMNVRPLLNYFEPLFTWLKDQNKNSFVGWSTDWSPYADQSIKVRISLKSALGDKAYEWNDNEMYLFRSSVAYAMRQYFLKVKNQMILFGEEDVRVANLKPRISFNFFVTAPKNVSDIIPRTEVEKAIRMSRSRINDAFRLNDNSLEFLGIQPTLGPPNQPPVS

With “SARS-CoV-2 spike RBD-MBP fusion protein (domain or fragment)”, the pKd was 7.72.

What is called pKd is the Kd on a negative log10 scale, so that one unit is a factor of ten.
